Data from the supplement of paper PMC11246515.
± gives the standard deviation of the averaged measurements.

Experiment: total protein half-life in vivo (active degradation + dilution); higher = more stable protein
[1] = wild type E. coli NCM3722, growth: C-lim chemostat, doubling time 3 h
[2] = wild type E. coli NCM3722, growth: C-lim chemostat, doubling time 6 h
[3] = wild type E. coli NCM3722, growth: C-lim chemostat, doubling time 12 h
[4] = E. coli NCM3722 delta-clpP, growth: N-lim chemostat, doubling time 6 h
[5] = E. coli NCM3722 delta-hslV, growth: N-lim chemostat, doubling time 6 h
[6] = E. coli NCM3722 delta-lon, growth: N-lim chemostat, doubling time 6 h
[7] = E. coli NCM3722 delta-smpB, growth: N-lim chemostat, doubling time 6 h
[8] = wild type E. coli NCM3722, growth: N-lim chemostat, doubling time 6 h
[9] = wild type E. coli NCM3722, growth: N-lim chemostat, doubling time 12 h
[10] = wild type E. coli NCM3722, growth: P-lim chemostat, doubling time 6 h
[11] = wild type E. coli NCM3722, growth: P-lim chemostat, doubling time 12 h
[12] = E. coli NCM3722 delta-clpP delta-lon delta-hslV, growth: N-lim chemostat, doubling time 6 h

Sequence	total protein half-life in vivo [1] [h]	total protein half-life in vivo [2] [h]	total protein half-life in vivo [3] [h]	total protein half-life in vivo [4] [h]	total protein half-life in vivo [5] [h]	total protein half-life in vivo [6] [h]	total protein half-life in vivo [7] [h]	total protein half-life in vivo [8] [h]	total protein half-life in vivo [9] [h]	total protein half-life in vivo [10] [h]	total protein half-life in vivo [11] [h]	total protein half-life in vivo [12] [h]
MERNKLARQIIDTCLEMTRLGLNQGTAGNVSVRYQDGMLITPTGIPYEKLTESHIVFIDGNGKHEEGKLPSSEWRFHMAAYQSRPDANAVVHNHAVHCTAVSILNRSIPAIHYMIAAAGGNSIPCAPYATFGTRELSEHVALALKNRKATLLQHHGLIACEVNLEKALWLAHEVEVLAQLYLTTLAITDPVPVLSDEEIAVVLEKFKTYGLRIEE [P0AB87]	2.81 ± 0.01	4.78 ± 0.5	7.71 ± 0.3	–	–	–	–	–	–	–	–	–
MERVSITERPDWREKAHEYGFNFHTMYGEPYWCEDAYYKLTLAQVEKLEEVTAELHQMCLKVVEKVIASDELMTKFRIPKHTWSFVRQSWLTHQPSLYSRLDLAWDGTGEPKLLENNADTPTSLYEAAFFQWIWLEDQLNAGNLPEGSDQFNSLQEKLIDRFVELREQYGFQLLHLTCCRDTVEDRGTIQYLQDCATEAEIATEFLYIDDIGLGEKGQFTDLQDQVISNLFKLYPWEFMLREMFSTKLEDAGVRWLEPAWKSIISNKALLPLLWEMFPNHPNLLPAYFAEDDHPQMEKYVVKPIFSREGANVSIIENGKTIEAAEGPYGEEGMIVQQFHPLPKFGDSYMLIGSWLVNDQPAGIGIREDRALITQDMSRFYPHIFVE [P0ADT5]	3.13 ± 0.18	5.78 ± 1	9.63 ± 0.61	4.7 ± 0.6	4.25 ± 0.46	4.93 ± 0.34	4.3 ± 0.17	4.46 ± 0.15	8.2 ± 1	5.65 ± 0.24	11.5 ± 0.2	–
MERVYRTDLKLLRYFLAVAEELHFGRAAARLNMSQPPLSIHIKELENQLGTQLFIRHSRSVVLTHAGKILMEESRRLLVNANNVLARIEQIGRGEAGRIELGVVGTAMWGRMRPVMRRFLRENPNVDVLFREKMPAMQMALLERRELDAGIWRMATEPPTGFTSLRLHESAFLVAMPEEHHLSSFSTVPLEALRDEYFVTMPPVYTDWDFLQRVCQQVGFSPVVIREVNEPQTVLAMVSMGIGITLIADSYAQMNWPGVIFRPLKQRIPADLYIVYETQQVTPAMVKLLAALTQ	–	–	–	3.26 ± 0.21	3.03	–	–	3.31	5.46	–	–	–
MESGHRFDAQTLHSFIQAVFRQMGSEEQEAKLVADHLIAANLAGHDSHGIGMIPSYVRSWSQGHLQINHHAKTVKEAGAAVTLDGDRAFGQVAAHEAMALGIEKAHQHGIAAVALHNSHHIGRIGYWAEQCAAAGFVSIHFVSVVGIPMVAPFHGRDSRFGTNPFCVVFPRKDNFPLLLDYATSAIAFGKTRVAWHKGVPVPPGCLIDVNGVPTTNPAVMQESPLGSLLTFAEHKGYALAAMCEILGGALSGGKTTHQETLQTSPDAILNCMTTIIINPELFGAPDCNAQTEAFAEWVKASPHDDDKPILLPGEWEVNTRRERQKQGIPLDAGSWQAICDAARQIGMPEETLQAFCQQLAS	3.14 ± 0.059	5.02 ± 0.63	8.45 ± 0.26	3.99 ± 0.17	4.28 ± 0.11	–	4.214 ± 0.024	4.46 ± 0.42	7.26 ± 1.5	5.58 ± 0.14	10.3 ± 1.2	4.97 ± 0.25
MESLASLYKNHIATLQERTRDALARFKLDALLIHSGELFNVFLDDHPYPFKVNPQFKAWVPVTQVPNCWLLVDGVNKPKLWFYLPVDYWHNVEPLPTSFWTEDVEVIALPKADGIGSLLPAARGNIGYIGPVPERALQLGIEASNINPKGVIDYLHYYRSFKTEYELACMREAQKMAVNGHRAAEEAFRSGMSEFDINIAYLTATGHRDTDVPYSNIVALNEHAAVLHYTKLDHQAPEEMRSFLLDAGAEYNGYAADLTRTWSAKSDNDYAQLVKDVNDEQLALIATMKAGVSYVDYHIQFHQRIAKLLRKHQIITDMSEEAMVENDLTGPFMPHGIGHPLGLQVHDVAGFMQDDSGTHLAAPAKYPYLRCTRILQPGMVLTIEPGIYFIESLLAPWREGQFSKHFNWQKIEALKPFGGIRIEDNVVIHENNVENMTRDLKLA	3.21 ± 0.37	5.72 ± 0.084	10.2 ± 1.3	4.93 ± 0.32	5.12 ± 0.4	5.92 ± 0.92	4.33 ± 0.059	4.77 ± 0.23	8.64 ± 0.18	6.13 ± 0.18	11.9 ± 0.27	5.4 ± 0.69
MESLTLQPIARVDGTINLPGSKSVSNRALLLAALAHGKTVLTNLLDSDDVRHMLNALTALGVSYTLSADRTRCEIIGNGGPLHAEGALELFLGNAGTAMRPLAAALCLGSNDIVLTGEPRMKERPIGHLVDALRLGGAKITYLEQENYPPLRLQGGFTGGNVDVDGSVSSQFLTALLMTAPLAPEDTVIRIKGDLVSKPYIDITLNLMKTFGVEIENQHYQQFVVKGGQSYQSPGTYLVEGDASSASYFLAAAAIKGGTVKVTGIGRNSMQGDIRFADVLEKMGATICWGDDYISCTRGELNAIDMDMNHIPDAAMTIATAALFAKGTTTLRNIYNWRVKETDRLFAMATELRKVGAEVEEGHDYIRITPPEKLNFAEIATYNDHRMAMCFSLVALSDTPVTILDPKCTAKTFPDYFEQLARISQAA [P0A6D3]	3.1 ± 0.1	5.96 ± 0.62	11.3 ± 0.63	5.52 ± 1.1	4.53 ± 0.15	5.22 ± 0.56	4.53 ± 0.049	4.45 ± 0.31	7.534 ± 0.05	5.98 ± 0.078	12.1 ± 1.5	5.15 ± 0.18
METRREERIGQLLQELKRSDKLHLKDAAALLGVSEMTIRRDLNNHSAPVVLLGGYIVLEPRSASHYLLSDQKSRLVEEKRRAAKLAATLVEPDQTLFFDCGTTTPWIIEAIDNEIPFTAVCYSLNTFLALKEKPHCRAFLCGGEFHASNAIFKPIDFQQTLNNFCPDIAFYSAAGVHVSKGATCFNLEELPVKHWAMSMAQKHVLVVDHSKFGKVRPARMGDLKRFDIVVSDCCPEDEYVKYAQTQRIKLMY [P0ACK5]	2.74	6.23 ± 0.15	9.99 ± 0.58	6.08 ± 0.73	6.59 ± 0.9	6.9 ± 1.5	5.02 ± 0.12	5.81 ± 0.078	10.57 ± 0.023	5.99 ± 0.49	–	6.81 ± 0.62
METTQTSTIASKDSRSAWRKTDTMWMLGLYGTAIGAGVLFLPINAGVGGMIPLIIMAILAFPMTFFAHRGLTRFVLSGKNPGEDITEVVEEHFGIGAGKLITLLYFFAIYPILLVYSVAITNTVESFMSHQLGMTPPPRAILSLILIVGMMTIVRFGEQMIVKAMSILVFPFVGVLMLLALYLIPQWNGAALETLSLDTASATGNGLWMTLWLAIPVMVFSFNHSPIISSFAVAKREEYGDMAEQKCSKILAFAHIMMVLTVMFFVFSCVLSLTPADLAAAKEQNISILSYLANHFNAPVIAWMAPIIAIIAITKSFLGHYLGAREGFNGMVIKSLRGKGKSIEINKLNRITALFMLVTTWIVATLNPSILGMIETLGGPIIAMILFLMPMYAIQKVPAMRKYSGHISNVFVVVMGLIAISAIFYSLFS [P0AAD6]	1.85	5.62 ± 2.4	2.71	–	0.951	–	–	–	–	1.58	3.86 ± 0.51	–
METVFDALKAMGKATSIELAARLDISREEVLNELWELKKAGFVDKSAYTWRVADNNVQQEQPAQAELPEEITTATVAKISECDLTATIEQRGPQTADELATLFGTTSRKVASTLAMAISKGRLIRVNQGGKFRYCIPGDNLPAEPKAASVSPLWLSASSSACHGVLIITVITPSPTKNSATKMPEN	1.42	–	–	–	–	–	1.14	–	–	–	–	5.08 ± 0.26
MEYFDMRKMSVNLWRNAAGETREICTFPPAKRDFYWRASIASIAANGEFSLFPGMERIVTLLEGGEMLLESADRFNHTLKPFQPFAFAADQVVKAKLTAGQMSMDFNIMTRLDVCKAKVRIAERTFTTFGSRGGVVFVINGAWQLGDKLLTTDQGACWFDGRHTLRLLQPQGKLLFSEINWLAGHSPDQVQ	0.307	–	–	–	–	–	–	–	–	–	–	–
MEYKDPMHELLSSLEQIVFKDETQKITLTHRTTSCTEIEQLRKGTGLKIDDFARVLGVSVAMVKEWESRRVKPSSAELKLMRLIQANPALSKQLME [P0A9V5]	–	–	–	0.508 ± 0.1	–	0.337	0.409	0.277	–	–	–	–
MFAEYGVLNYWTYLVGAIFIVLVPGPNTLFVLKNSVSSGMKGGYLAACGVFIGDAVLMFLAWAGVATLIKTTPILFNIVRYLGAFYLLYLGSKILYATLKGKNSEAKSDEPQYGAIFKRALILSLTNPKAILFYVSFFVQFIDVNAPHTGISFFILAATLELVSFCYLSFLIISGAFVTQYIRTKKKLAKVGNSLIGLMFVGFAARLATLQS	> 4	–	–	–	4.19 ± 0.057	5.03 ± 0.45	–	–	8.29	–	–	–
MFALCDVNAFYASCETVFRPDLWGKPVVVLSNNDGCVIARNAEAKALGVKMGDPWFKQKDLFRRCGVVCFSSNYELYADMSNRVMSTLEELSPRVEIYSIDEAFCDLTGVRNCRDLTDFGREIRATVLQRTHLTVGVGIAQTKTLAKLANHAAKKWQRQTGGVVDLSNLERQRKLMSALPVDDVWGIGRRISKKLDAMGIKTVLDLADTDIRFIRKHFNVVLERTVRELRGEPCLQLEEFAPTKQEIICSRSFGERITDYPSMRQAICSYAARAAEKLRSEHQYCRFISTFIKTSPFALNEPYYGNSASVKLLTPTQDSRDIINAATRSLDAIWQAGHRYQKAGVMLGDFFSQGVAQLNLFDDNAPRPGSEQLMTVMDTLNAKEGRGTLYFAGQGIQQQWQMKRAMLSPRYTTRSSDLLRVK	–	–	–	–	–	–	–	–	–	–	–	5.93
